Laboratory results taken from the supplement of paper PMC10567573.

B1: KLHDC10 (parent)
chain: CPIIRIPNRFLRGHRPPPARSGHR
B2: PTPRD (parent)
chain: MVHVARLLLLLLTFFLRTDAETPP
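Note: lentivirally expressed fusions sorted by FACS into six bins by GFP to DsRed ratio, PSI derived from sequencing read proportions per bin multiplied by bin number.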

Variants of: B1
Assay: protein stability index of a GFP-peptide fusion (GPS, HEK-293T) (PSI 1-6); higher = more stable
Conditions: c terminus: a fixed tail appended
With N8G the protein stability index was 1.38.
In the case of N8L, the protein stability index is reported as 2.21.
N8Y gave a protein stability index of 2.07.
Work on I6D yielded a protein stability index of 4.25.
In the case of P2A, the protein stability index is reported as 3.75.
For R12F, the protein stability index was 1.75.
R12G showed a protein stability index of 1.8.
In the case of R12N, the protein stability index is reported as 2.27.
With R12K the protein stability index was 2.09.
With S21P the protein stability index was 1.94.
For S21H, the protein stability index was 1.75.
For S21Q, the protein stability index was 1.42.
S21D showed a protein stability index of 1.75.
Variant S21W has a protein stability index of 1.83.
Work on P18K yielded a protein stability index of 2.5.
P18C gave a protein stability index of 1.82.
For P18R, the protein stability index was 1.63.
For P18I, the protein stability index was 2.17.
G22S gave a protein stability index of 1.66.
For G22M, the protein stability index was 1.91.
Work on P7H yielded a protein stability index of 3.62.
For P7Y, the protein stability index was 2.11.
Work on P7M yielded a protein stability index of 3.29.
In the case of P7V, the protein stability index is reported as 1.86.
Variant I4F has a protein stability index of 2.46.
With I4L the protein stability index was 2.4.
Variant I4W has a protein stability index of 3.12.
I4S gave a protein stability index of 3.22.
R9P gave a protein stability index of 3.47.
In the case of R9A, the protein stability index is reported as 1.61.
With R24G the protein stability index was 2.1.
With R24H the protein stability index was 2.01.
With R24W the protein stability index was 2.99.
Work on P17W yielded a protein stability index of 1.97.
P17Y gave a protein stability index of 2.55.
With P17K the protein stability index was 2.98.
L11S gave a protein stability index of 2.46.
L11D showed a protein stability index of 1.42.
L11M gave a protein stability index of 2.89.
L11H gave a protein stability index of 1.69.
Work on L11E yielded a protein stability index of 1.31.
Variant G13K has a protein stability index of 1.9.
G13C showed a protein stability index of 1.53.
In the case of H23V, the protein stability index is reported as 1.69.
H23W gave a protein stability index of 1.59.
With R5V the protein stability index was 2.6.
In the case of R5E, the protein stability index is reported as 5.03.
R5D showed a protein stability index of 4.21.
R5W gave a protein stability index of 2.73.
For R5I, the protein stability index was 2.81.
Work on C1I yielded a protein stability index of 3.59.
Work on I3S yielded a protein stability index of 2.56.
I3P gave a protein stability index of 4.2.
Variant I3F has a protein stability index of 1.47.
In the case of I3Y, the protein stability index is reported as 1.6.
I3K showed a protein stability index of 2.81.
I3A gave a protein stability index of 1.56.
With F10L the protein stability index was 2.48.
Work on F10M yielded a protein stability index of 1.82.
With F10I the protein stability index was 2.46.
F10V gave a protein stability index of 1.4.
Work on F10A yielded a protein stability index of 2.85.
F10H gave a protein stability index of 2.25.
Variant P16H has a protein stability index of 1.92.
P16S gave a protein stability index of 2.12.
Variant A19K has a protein stability index of 1.61.
Work on A19H yielded a protein stability index of 3.04.
Work on H14S yielded a protein stability index of 2.07.
In the case of H14L, the protein stability index is reported as 1.32.
H14M showed a protein stability index of 1.87.
Work on R15I yielded a protein stability index of 1.28.
With R15G the protein stability index was 1.69.
R15M showed a protein stability index of 1.84.

Variants of: B2
Assay: as above
Conditions: c terminus: a fixed tail appended
Variant R17V has a protein stability index of 2.9.
Work on R17E yielded a protein stability index of 1.62.
Variant T22E has a protein stability index of 2.08.
In the case of T22H, the protein stability index is reported as 2.36.
For T22D, the protein stability index was 2.81.
V4M showed a protein stability index of 1.46.
Work on V4T yielded a protein stability index of 2.52.
In the case of P24L, the protein stability index is reported as 2.27.
Work on P24F yielded a protein stability index of 1.99.
P24Q gave a protein stability index of 3.53.
P24D showed a protein stability index of 2.73.
In the case of P24S, the protein stability index is reported as 4.91.
For P24M, the protein stability index was 3.61.
For P23E, the protein stability index was 2.31.
P23F showed a protein stability index of 2.96.
In the case of P23Q, the protein stability index is reported as 3.52.
L10R gave a protein stability index of 2.14.
L10G gave a protein stability index of 1.33.
In the case of L10M, the protein stability index is reported as 2.42.
Variant L10C has a protein stability index of 2.04.
For L10T, the protein stability index was 1.24.
With L10Q the protein stability index was 1.57.
With L10E the protein stability index was 2.79.
Work on F15N yielded a protein stability index of 3.47.
For F15V, the protein stability index was 2.2.
F15I gave a protein stability index of 2.25.
F15W gave a protein stability index of 2.81.
A5Y showed a protein stability index of 2.6.
For A5R, the protein stability index was 1.78.
For A5F, the protein stability index was 3.28.
Work on A5C yielded a protein stability index of 2.97.
With A5H the protein stability index was 4.03.
Variant E21Q has a protein stability index of 4.35.
L12I gave a protein stability index of 2.03.
L12S showed a protein stability index of 2.3.
L12R showed a protein stability index of 2.03.
Variant L12G has a protein stability index of 2.46.
In the case of L12V, the protein stability index is reported as 1.57.
Variant L12C has a protein stability index of 3.16.
L9Y showed a protein stability index of 2.74.
L9R gave a protein stability index of 1.88.
For L9I, the protein stability index was 2.95.
Variant L9K has a protein stability index of 3.08.
With L9N the protein stability index was 1.58.
L9F gave a protein stability index of 2.89.
L9D gave a protein stability index of 3.06.
Work on L9H yielded a protein stability index of 1.53.
For D19V, the protein stability index was 3.32.
In the case of D19K, the protein stability index is reported as 2.29.
For D19A, the protein stability index was 2.91.
With D19N the protein stability index was 2.96.
D19F showed a protein stability index of 3.69.
For D19S, the protein stability index was 1.84.
Work on L16K yielded a protein stability index of 1.72.
Work on L16F yielded a protein stability index of 1.37.
With L16S the protein stability index was 2.22.
In the case of L16N, the protein stability index is reported as 2.12.
L16A showed a protein stability index of 1.49.
Variant L16Y has a protein stability index of 1.52.
In the case of L16R, the protein stability index is reported as 1.72.
In the case of L7T, the protein stability index is reported as 3.27.
Variant T18H has a protein stability index of 2.3.
For T18G, the protein stability index was 2.47.
With T18D the protein stability index was 2.18.
L8Q showed a protein stability index of 2.18.
For L8D, the protein stability index was 3.8.
Work on L8I yielded a protein stability index of 2.58.
Variant L8F has a protein stability index of 2.82.
In the case of L8T, the protein stability index is reported as 3.02.
Variant T13K has a protein stability index of 2.03.
T13Q showed a protein stability index of 1.32.
For T13G, the protein stability index was 2.01.
In the case of F14C, the protein stability index is reported as 1.47.
F14H showed a protein stability index of 1.25.
F14S showed a protein stability index of 1.99.
In the case of F14I, the protein stability index is reported as 2.56.
F14G showed a protein stability index of 1.48.
For F14Y, the protein stability index was 1.86.
Work on F14L yielded a protein stability index of 1.98.
Variant L11V has a protein stability index of 1.84.
Variant L11E has a protein stability index of 1.62.
Variant L11M has a protein stability index of 3.56.
In the case of L11F, the protein stability index is reported as 2.56.
Variant V2H has a protein stability index of 2.53.
V2G showed a protein stability index of 1.83.
R6I showed a protein stability index of 1.13.
In the case of R6C, the protein stability index is reported as 2.16.
Variant R6F has a protein stability index of 1.74.
A20Q showed a protein stability index of 2.29.
In the case of H3L, the protein stability index is reported as 2.27.
Variant H3D has a protein stability index of 2.1.
Work on H3C yielded a protein stability index of 4.98.
In the case of H3M, the protein stability index is reported as 2.86.
In the case of H3K, the protein stability index is reported as 1.78.
